Data as given in the domain aggregation screens of Martell et al. (2025).

Test: soluble fraction after stress (log2 fold change); higher = more stays soluble; pooled small domains, quantitative proteomics
Conditions: stress: 50 degC
How it was run: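 After stress at 50°C, the amount of each protein still soluble was measured. This was done on pooled custom libraries of small protein domains, using high-throughput quantitative proteomics. The figure given is a base-two log fold change and stands for aggregation propensity, with higher values meaning more protein stays in solution.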

First: HMSVGDLLENLIRETRAQFSAPPESLGVAEKRRFVALLSQKGGFLLKGAVSRAASVLGVSEQTVYRYLKDS
Second: HMSVGDLPPEAREIWKLLDGRELSLDLLAEETGRETGALLSTLMMLEMKLLVEHGSDMVYRRIPRR
The “soluble fraction (log2)” value of the first is higher: -0.218 for the first, -1.78 for the second.

Compared with “HMSVHSAELKKLKAHLLGIIGRELETQPSTENREEMVRQILHQSYESLRLNLPMQLKEELFNEILAEVL”, “HMSVLEHVSGNVRRLRLQAGLSQEALARAASVSRRMLVGIESGDVNVSLSTLDRIAAALGVLFPDLVQAP” is lower in “soluble fraction (log2)” value: 0.353 for the first, -1.52 for the second.

First: HMSVLPAREQVAAILRQAILLRKFKEGQDLTLKDAAELVGSSITPVREAFQILENEGLIELRPNKGAVVL
Second: HMSVPEDLYFRELEVEGNKVRISGIASTNNRVSALMRNFDQSEWFRDPSLIKVESKSPGVNEFEIVMTRI
The “soluble fraction (log2)” value of the first is lower: -0.284 for the first, 0.0509 for the second.

Going from “HMSVPNVVGRDQVEASSLLESAGFKVSVKQSYSDSVEQGKVISQSPSGSTTVSPGSTVTITVSQ” to “HMSVPRPSAVEVTSLVTGVRDLLPHLGEGYVERVLVEFGFKVDETINALLEGNLPKHLQDLDPSLTKEI”, the “soluble fraction (log2)” value falls from 0.122 to -0.662.

Compared with “HMSVPVDEVLAALTQKLTDLRTQAMAAKDFSAVDALKAALTEAGVEVRMSKTGVELIAGPRVDAKKLGTL”, “HMSVRPMVEILRVVGSPSPVWVTWARNRAAWLYETGIRPQQRLRMADGTEVLIRLVGEFAHILVVGG” is lower in “soluble fraction (log2)” value: -0.03 for the first, -0.31 for the second.

“HMSVSATQMDAFVRQLRARLSSADGLDDAARLVRQDLEPFLGRFSDETERDFAAAIEQVRGSIRPVEI” and “HMSVSEAELAEKYHADDLEALKSGKLHEFQENLIDRNGKKYTVQTMKDILTLSDGTRLLLGIGLD” are within 0.2 log units of each other in “soluble fraction (log2)” value: 0.0229 for the first, 0.174 for the second.

“HMSVTDDQLRVFTNKSGTKIKAKIVEVSDDKVKLIRDDNKKFIVPINSLSEEDQDYLRDWVSNEAVEP” and “HMSVTIDAGGKVYLQESEIADDQLVPRLVAISNNGYDKPIYLRADKTVGYGRVAEVMSLLNAAGFTKLVLV” are within 0.2 log units of each other in “soluble fraction (log2)” value: 0.0333 for the first, -0.0288 for the second.

First: HMSVTRELMLVKVKVTPEQRAGVSAIVDIFRANIIDVGKESMIIELTGNKSKLEAFIDLLDGYEILELART
Second: HMSVTVPDVKRMQAEDAKALLSRYRLRSEVIDSVYVDNIPRGAVVEQIPRENSSVKENRIVFLTINSN
The “soluble fraction (log2)” value of the first is lower: -0.861 for the first, -0.363 for the second.

Going from “HMSVTYRYSYVYNGNTYSDGWSVRRAIENNENKRFGPEPSDLDHEAQKQARVTFWAEHGVEYKEQEVV” to “HMSVYIGVDQAKSIAAEHAGLSNSAVTFSKAKLENDDGMTVYEVEFFYQGTEYDYKIDASTGSILEYDLDR”, the “soluble fraction (log2)” value falls from -0.879 to -1.26.

Going from “HMSWEDSLLKQAREIIDMYPQKRSAVGPLLHLAQSKDGYISDDSISVISKLVGITEVQLKSVSTFYSMYK” to “HMSWEELLEHLEKAAERGEEVRIAGVTLHDEEDFKRALRWLKEWL”, the “soluble fraction (log2)” value falls from -1.59 to -1.93.

Going from “HMSYIGEEKAKSIAVSNVKGAGTNNVVKVEFDYDDGRAVYEVKVVYNAMEYEFEIDASNGKILSRDAESIY” to “HMSYKFDSLAIILNKLDGKETVNVSSLSDELEVSARTVHRYIGTLQVAGFPIEYDKTKNSYIFSEGYTL”, the “soluble fraction (log2)” value falls from -0.309 to -0.874.

First: HMSYQFKIKNNAAVEVTVSEKNNLLGSTYGDKATVAAGMEKNVTFYTDKPDVVVDTNGNFTITVHDKEIII
Second: HMSYSYIYNYALKVKMDISSTGGKKPYAYYYYDHSYKLAEEILSLSEETESIELQNKYDELKDFYENP
The “soluble fraction (log2)” value of the first is higher: 0.132 for the first, -1.32 for the second.

First: HMSYTWHDMYLLAQEYQKEHGNLIIPRNYKGKNGLNLGYWLYKEKLKYRQGKLAPEKIIALEHIGIVWT
Second: HMSYYKEMIRLADSIADKAHEGQTDRNGWPYISHPRRVALGARKLVSEMASSTSPDTSLEELKAEVQIVAL
The “soluble fraction (log2)” value of the first is lower: -1.21 for the first, -0.288 for the second.

In the case of “HMTAAPEVRVEGLFKGAAVLKIDGQQVMLKKGRSHSSGVTLVDANAHRAIVEIDGQRHELALHMA”, the “soluble fraction (log2)” value is reported as 0.0499.
